Reference: US20250041379A1, “METHODS AND COMPOSITIONS FOR THE TREATMENT OF CANCER” (Vigeo Therapeutics, Inc., priority 2021, published 2025)
No end group written: not given here.

What was measured:
[1] = tested on: animal models of ovarian, pancreatic, and breast cancer; assay: Preclinical studies in animal models of cancer; assay type: in vivo; details: multiple animal models of ovarian
[2] = VT1021 concentration in plasma (pharmacokinetic profile) in the clinical study; assay type: in vivo, human; details: phase I/II study
Text: FIG. 2 is a chart showing the pharmacokinetic profile of VT1021 concentration in the plasma of human patients with glioblastoma (red), pancreatic cancer (green), ovarian cancer (blue), other (purple) or not reported (red) over time following the initial administration at time 0. “Others” and “Not reported” refer to subjects enrolled in the clinical trial with solid tumor indications other than GBM, Panc, and Ovarian cancers.
FIG. 7 is a chart showing the pharmacokinetic profile of VT1021 concentration in the plasma of male (solid line) and female (dotted line) glioblastoma patients over time following the initial administration at time 0.
In the “expansion stage” of the VT1021-01 Study, subjects diagnosed with recurrent GBM, pancreatic cancer, ovarian cancer and other solid tumors were enrolled. […] The correlation between days on study and tumor shrinkage versus expression profile of CD36 and CD47 was analyzed (FIG. 4). The general expression profile of CD36 and CD47 has been assessed by IHC on Tumor Tissue Microarrays (TMAs), which contain biopsy samples collected from pancreatic cancer patients. […]
The blood samples were collected from GBM subjects in the expansion phase, who were treated by VT1021 at 11.8 mg/kg, twice weekly, by IV infusion. VT1021 levels were measured and analyzed among male and female subjects (FIG. 7). […]

[3] = tested on: circulating immune cells (CTLs, helper T cells, MDSCs); assay: Flow cytometry of immune cells isolated from whole blood of rGBM subjects; assay type: in vivo, human; details: Cycle 1 Day 1
Text: FIG. 11A, FIG. 11B, FIG. 11C, FIG. 11D, FIG. 11E, and FIG. 11F are charts showing modulation of the immune system by VT1021 in circulation and in the TME. […] Proliferating CTLs increased ≥1.5 fold regardless of clinical response, proliferating helper T cells increased ≥1.5 fold in CR/PR and PD subjects while monocytic MDSCs (mMDSCs) and activated MDSCs decreased≤0.5 fold in all evaluable subjects. […] Percent of M1 increased 1.9-fold while M2 decreased 0.6-fold after treatment. […] CTLs increased >4 fold while total and mMDSCs […] >15 fold in the on-study biopsy compared to pre-treatment.

[4] = tested on: GBM; assay: Example 4: treatment of GBM with dually elevated CD36 and CD47; assay type: in vivo; details: expected
Description: Subjects having GBM are identified using standard clinical protocols. Samples are obtained and levels of CD36 and CD47 measured using methods known in the art. Subjects presenting with dually elevated CD36 and CD47 levels as compared to suitable controls are selected for dosing with VT1021. Subjects advancing to the treatment phase are administered VT1021. Frequency and dosage are determined in accordance with the stage and severity of disease accordingly to methods standard in the art. Tumor burden and other disease indicators are measured and data compiled using methods known in the art.

[5] = tested on: TSP-1; assay: TSP-1 protein by ELISA in peripheral blood mononuclear cells of rGBM subjects; assay type: in vivo, human; details: all evaluable subjects with rGBM
Text: FIG. 10 is a chart showing that VT1021 induces TSP-1 in the circulation and the TME. (A) Bar graph of Tsp-1 protein levels measured by ELISA in circulating MDSCs collected prior to (baseline) and after (induction) treatment with VT1021 from patients who experienced complete or partial response, stable disease, or progressive disease; (B) H&E and immunohistochemical analysis of patient tumor tissue prior to onset (pre) or during treatment with VT1021; (C) Immunohistochemical analysis depicting representative images of high levels of CD36 and CD47.
The blood samples were collected from GBM subjects in the expansion phase, who were treated by VT1021 at 11.8 mg/kg, twice weekly, by IV infusion. VT1021 levels were measured and analyzed among male and female subjects (FIG. 7). […] CD36 and CD47 levels have been measured by immunohistochemistry assays in the pre-treatment tumor biopsy samples of the GBM subjects (FIG. 9, FIG. 10). Levels of Tsp-1 were measured by ELISA for circulating Tsp-1 levels in the collected blood samples, and by immunohistochemistry for the level of Tsp-1 accumulated in the tumor biopsy samples (FIG. 10). The infiltration of immune and inflammatory cells, specifically, MDSCs, T cells and macrophages, were determined by immunohistochemical analysis of the levels of cell surface markers in the tumor biopsy samples of subjects (FIG. 11).

[6] = tested on: subjects with rGBM; assay: Phase I/II clinical study (NCT03364400): adverse events in subjects with recurrent GBM; assay type: in vivo, human
Description: VT1021 was evaluated in a recently completed phase I/II open-label, multicenter, dose escalation (Part 1) and expansion (Part 2) clinical study in advanced, refractory, solid tumors including recurrent GBM (rGBM) (NCT03364400). Thirty-two subjects with rGBM were dosed in Part 2, 22 of which were considered evaluable as having completed ≥1 cycle of VT1021 treatment and tumor imaging during cycle 2. […]

[7] = whole blood before and after 6 hours, all evaluable subjects, decreased
[8] = GBM, 32 Subjects, all cycles, maximum grade, regardless of causality

cyclic DWLPK (also: cyclic, mode of cyclisation not given here) [VT1021, 5-amino acid cyclic peptide from prosaposin; Tsp-1-inducing agent]
anti-tumor activity [1]: robust anti-tumor activity | pharmacokinetic profile ([2]; solid tumors including pancreatic cancer): predictable | pharmacokinetic profile ([2]; solid tumors including rGBM): predictable | Proliferating CTLs, fold change ([3]; whole blood before and after 6 hours of treatment, regardless of clinical response, increased): ≥ 1.5 fold | proliferating helper T cells, fold change ([3]; whole blood before and after 6 hours, CR/PR and PD subjects, increased): ≥ 1.5 fold | activated MDSCs, fold change [3, 7]: ≤ 0.5 fold | monocytic MDSCs (mMDSCs), fold change [3, 7]: ≤ 0.5 fold | tumor burden compared to control subjects [4]: reduction in tumor burden | TSP-1 protein in peripheral blood mononuclear cells (PBMCs) [5]: induced | Abdominal Pain (AE), All Grades [6, 8]: 5 | Abdominal Pain (AE), Grade 1-2 [6, 8]: 5 | Diarrhea (AE), All Grades [6, 8]: 4 | Diarrhea (AE), Grade 1-2 [6, 8]: 4 | Fall (AE), All Grades [6, 8]: 9 | Fall (AE), Grade 1-2 [6, 8]: 9 | Infusion reaction (AE), All Grades [6, 8]: 3 | Infusion reaction (AE), Grade 1-2 [6, 8]: 3 | Nausea (AE), All Grades [6, 8]: 3 | Nausea (AE), Grade 1-2 [6, 8]: 3 | Vomiting (AE), All Grades [6, 8]: 3 | Vomiting (AE), Grade 1-2 [6, 8]: 2 | Vomiting (AE), Grade 3-4 [6, 8]: 1 | major adverse events (AEs) ([6]; phase I/II study, solid tumors including rGBM): no major adverse events
